Experimental data from FireProtDB (doi:10.1111/j.1399-3011.1982.tb00898.x).

Conditions: Escherichia coli (strain K12), Thermal, DSC, whole UniProt chain shown
[1] = pH 7, 25 °C, potassium phosphate 1 mM, reversible: yes(<50%)
[2] = pH 7, potassium phosphate 1 mM, reversible: yes(<50%)
[3] = pH 9.3, 25 °C, sodium tetraborate 1 mM, reversible: yes(>70%)
[4] = pH 9.3, sodium tetraborate 1 mM, reversible: yes(>70%)

B1: Tryptophan synthase alpha chain wild type, P0A877 (protein)
chain: MERYESLFAQLKERKEGAFVPFVTLGDPGIEQSLKIIDTLIEAGADALELGIPFSDPLADGPTIQNATLRAFAAGVTPAQCFEMLALIRQKHPTIPIGLLMYANLVFNKGIDEFYAQCEKVGVDSVLVADVPVEESAPFRQAALRHNVAPIFICPPNADDDLLRQIASYGRGYTYLLSRAGVTGAENRAALPLNHLVAKLKEYNAAPPLQGFGISAPDQVKAAIDAGAAGAISGSAIVKIIEQHINEPEKMLAALKVFVQPMKAATRS
For B1, the “heat capacity change of unfolding” value [1] was 2.9 kcal/mol/K, the unfolding free energy [1] was 8.4 kcal/mol and the Tm [2] was 62.4 °C. For the same protein, the “heat capacity change of unfolding” value [2] was 2.9 kcal/mol/K, the “heat capacity change of unfolding” value [3] was 2.9 kcal/mol/K and the unfolding free energy [3] was 5.8 kcal/mol. For the same protein, the Tm [4] was 54.3 °C and the “heat capacity change of unfolding” value [4] was 2.9 kcal/mol/K.
